Reference: article PMC7272460, “Structural and functional evidence of bacterial antiphage protection by Thoeris defense system via NAD^+ degradation” (Nature Communications, 2020)
“And” between values parts separate entries of the source, which are not always exact repeats. Identical values can stand only once.

Legend:
[1] = test system: NC(=O)c1ccc[n+]([C@@H]2O[C@H](COP(=O)(O)OP(=O)(O)OC[C@H]3O[C@@H](n4cnc5c(N)ncnc54)[C@H](O)[C@@H]3O)[C@@H](O)[C@H]2O)c1; assay: purified protein; format: biochemical, Bacillus cereus; conditions: 2.0 μM ThsA, 63 mM NaCl, 14 mM Tris-HCl pH 7.5, 25 °C
[2] = target: the molecule itself; assay: SEC-MALS; Superdex 200 Increase 10/300 GL, 200 mM NaCl, 2 mM DTT, 20 mM HEPES pH 7.5, 25 °C; ThsA loaded at 11 mg/mL, ThsB at 24 mg/mL (~1 mM)
[3] = target: the molecule itself; assay: SEC; analytical SEC of single ThsA proteins (wild type, N112A, H152A) to compare the oligomeric state; Superdex 200 10/300 GL, 150 mM NaCl, 1 mM DTT, 20 mM HEPES pH 7.5
[4] = target: the molecule itself; assay: crystal structure; ThsA crystals, sitting drop, 20 °C, 22% polypropylene glycol 400, 0.2 M MgCl2, 0.1 M MES pH 6.5; 2.5 Å; four protomers in the asymmetric unit

ThsA (Bacillus cereus MSX-D12)
Km [1]: 270 µM
kcat [1]: 0.565 s⁻¹

B1: ThsA of the Bacillus cereus MSX-D12 Thoeris defense system, wild type (enzyme)
chain: MNPIVELFIKDFTKEVMEENAAIFAGAGLSMSVGYVSWAKLLEPIAQEIGLDVNKENDLVSLAQYYCNENQGNRGRINQIILDEFSRKVDLTENHKILARLPIHTYWTTNYDRLIEKALEEENKIADVKYTVKQLATTKVKRDAVVYKMHGDVEHPSEAVLIKDDYEKYSIKMDPYIKALSGDLVSKTFLFVGFSFTDPNLDYILSRVRSAYERDQRRHYCLIKKEERRPDELEADFEYRVRKQELFISDLSRFNIKTIVLNNYNEITEILQRIENNIKTKTVFLSGSAVEYNHWETEHAEQFIHQLSKELIRKDFNIVSGFGLGVGSFVINGVLEELYMNQGTIDDDRLILRPFPQGKKGEEQWDKYRRDMITRTGVSIFLYGNKIDKGQVVKAKGVQSEFNISFEQNNYVVPVGATGYIAKDLWNKVNEEFETYYPGADARMKKLFGELNNEALSIEELINTIIEFVEILSN
notes: ThsA, Bacillus cereus MSX-D12, synthetic thsA gene in pET28a; the structure has an N-terminal sirtuin-like domain (residues 1-283) and a C-terminal SLOG-like domain (residues 284-476); The synthetic thsA gene was cloned; Predominantly a tetramer by SEC-MALS, with a trace of octamer; also called B. cereus ThsA; wild-type ThsA; source: E. coli BL21(DE3), purified (HisTrap, TEV cleavage, second …)
stoichiometry N [2]: 4 and 8

B2: ThsA N112A mutant (enzyme)
chain: MNPIVELFIKDFTKEVMEENAAIFAGAGLSMSVGYVSWAKLLEPIAQEIGLDVNKENDLVSLAQYYCNENQGNRGRINQIILDEFSRKVDLTENHKILARLPIHTYWTTAYDRLIEKALEEENKIADVKYTVKQLATTKVKRDAVVYKMHGDVEHPSEAVLIKDDYEKYSIKMDPYIKALSGDLVSKTFLFVGFSFTDPNLDYILSRVRSAYERDQRRHYCLIKKEERRPDELEADFEYRVRKQELFISDLSRFNIKTIVLNNYNEITEILQRIENNIKTKTVFLSGSAVEYNHWETEHAEQFIHQLSKELIRKDFNIVSGFGLGVGSFVINGVLEELYMNQGTIDDDRLILRPFPQGKKGEEQWDKYRRDMITRTGVSIFLYGNKIDKGQVVKAKGVQSEFNISFEQNNYVVPVGATGYIAKDLWNKVNEEFETYYPGADARMKKLFGELNNEALSIEELINTIIEFVEILSN
notes: ThsA, Bacillus cereus MSX-D12, synthetic thsA gene in pET28a, point mutant made by PCR with mismatched primers; source: E. coli BL21(DE3), purified; not shown: His6, N-terminal, cleaved; MBP, N-terminal, cleaved
binding result [3]: binds

B3: selenomethionyl ThsA of Bacillus cereus MSX-D12 (crystallised) (enzyme)
chain: MNPIVELFIKDFTKEVMEENAAIFAGAGLSMSVGYVSWAKLLEPIAQEIGLDVNKENDLVSLAQYYCNENQGNRGRINQIILDEFSRKVDLTENHKILARLPIHTYWTTNYDRLIEKALEEENKIADVKYTVKQLATTKVKRDAVVYKMHGDVEHPSEAVLIKDDYEKYSIKMDPYIKALSGDLVSKTFLFVGFSFTDPNLDYILSRVRSAYERDQRRHYCLIKKEERRPDELEADFEYRVRKQELFISDLSRFNIKTIVLNNYNEITEILQRIENNIKTKTVFLSGSAVEYNHWETEHAEQFIHQLSKELIRKDFNIVSGFGLGVGSFVINGVLEELYMNQGTIDDDRLILRPFPQGKKGEEQWDKYRRDMITRTGVSIFLYGNKIDKGQVVKAKGVQSEFNISFEQNNYVVPVGATGYIAKDLWNKVNEEFETYYPGADARMKKLFGELNNEALSIEELINTIIEFVEILSN
modifications: selenomethionine at seven of eight possible Met sites
notes: ThsA, Bacillus cereus MSX-D12, synthetic thsA gene in pET28a; N-terminal sirtuin-like domain (residues 1-283) and C-terminal SLOG-like domain (residues 284-476) in the structure; Four protomers (chains A-D) in the asymmetric unit; The methods describe only selenomethionyl protein before the crystallisation; that the deposited structure is of this form is inferred; also called selenomethionyl …
binding result [4]: binds
